US20180355014A1 (JUNO THERAPEUTICS, published 2018)

B1: VAFIIFWVH (SEQ ID NO: 37) (peptide)
peptide: VAFIIFWVH
notes: synthetic 9-mer; the entry already carries the mutation
B2: AFIIFWVKR (SEQ ID NO: 17) (peptide)
peptide: AFIIFWVKR
notes: synthetic 9-mer
B3: AFIIFWVQR (SEQ ID NO: 51) (peptide)
peptide: AFIIFWVQR
notes: as for B1
B4: AFIIFWVLR (SEQ ID NO: 31) (peptide)
peptide: AFIIFWVLR
notes: as for B1
B5: IFWVKRGRK (SEQ ID NO: 20) (peptide)
peptide: IFWVKRGRK
notes: synthetic 9-mer
B6: IFWVLRGRK (SEQ ID NO: 34) (peptide)
peptide: IFWVLRGRK
notes: as for B1
B7: IFWVQRGSK (SEQ ID NO: 78) (peptide)
peptide: IFWVQRGSK
notes: synthetic 9-mer; the entry already carries the mutations
B8: IIFWVKRGH (SEQ ID NO: 65) (peptide)
peptide: IIFWVKRGH
notes: as for B1
B9: IIFWVQRGS (SEQ ID NO: 77) (peptide)
peptide: IIFWVQRGS
notes: as for B7
B10: IIFWVQRGN (SEQ ID NO: 85) (peptide)
peptide: IIFWVQRGN
notes: as for B7
B11: FIIFWVKRG (SEQ ID NO: 18) (peptide)
peptide: FIIFWVKRG
notes: synthetic 9-mer
B12: FIIFWVSRG (SEQ ID NO: 25) (peptide)
peptide: FIIFWVSRG
notes: as for B1
B13: FIIFWVQRG (SEQ ID NO: 52) (peptide)
peptide: FIIFWVQRG
notes: as for B1
B14: FIIFWVLRG (SEQ ID NO: 32) (peptide)
peptide: FIIFWVLRG
notes: as for B1
B15: FWVKRGRKK (SEQ ID NO: 21) (peptide)
peptide: FWVKRGRKK
notes: synthetic 9-mer
B16: FWVKRGAKK (SEQ ID NO: 71) (peptide)
peptide: FWVKRGAKK
notes: as for B1
B17: FWVHRGRKK (SEQ ID NO: 42) (peptide)
peptide: FWVHRGRKK
notes: as for B1
B18: FWVARGRKK (SEQ ID NO: 48) (peptide)
peptide: FWVARGRKK
notes: as for B1
B19: FWVKRGNKK (SEQ ID NO: 75) (peptide)
peptide: FWVKRGNKK
notes: as for B1
B20: FWVSRGRKK (SEQ ID NO: 28) (peptide)
peptide: FWVSRGRKK
notes: as for B1
B21: FWVQRGNKK (SEQ ID NO: 87) (peptide)
peptide: FWVQRGNKK
notes: as for B7
B22: FWVLRGRKK (SEQ ID NO: 35) (peptide)
peptide: FWVLRGRKK
notes: as for B1
B23: FWVQRGRKK (SEQ ID NO: 55) (peptide)
peptide: FWVQRGRKK
notes: as for B1
B24: FWVKRGSKK (SEQ ID NO: 59) (peptide)
peptide: FWVKRGSKK
notes: as for B1
B25: FWVQRGSKK (SEQ ID NO: 79) (peptide)
peptide: FWVQRGSKK
notes: as for B7
B26: FWVKRGHKK (SEQ ID NO: 67) (peptide)
peptide: FWVKRGHKK
notes: as for B1
B27: FWVQRGAKK (SEQ ID NO: 83) (peptide)
peptide: FWVQRGAKK
notes: as for B7
B28: WVKRGRKKL (SEQ ID NO: 22) (peptide)
peptide: WVKRGRKKL
notes: synthetic 9-mer
B29: WVSRGRKKL (SEQ ID NO: 29) (peptide)
peptide: WVSRGRKKL
notes: as for B1
B30: WVKRGLKKL (SEQ ID NO: 64) (peptide)
peptide: WVKRGLKKL
notes: as for B1
B31: WVKRGRKKS (SEQ ID NO: 89) (peptide)
peptide: WVKRGRKKS
notes: as for B1
B32: WVQRGAKKL (SEQ ID NO: 84) (peptide)
peptide: WVQRGAKKL
notes: as for B7
B33: WVHRGRKKL (SEQ ID NO: 43) (peptide)
peptide: WVHRGRKKL
notes: as for B1
B34: WVLRGRKKL (SEQ ID NO: 36) (peptide)
peptide: WVLRGRKKL
notes: as for B1
B35: VAFIIFWVA (SEQ ID NO: 44) (peptide)
peptide: VAFIIFWVA
notes: as for B1
B36: VAFIIFWVQ (SEQ ID NO: 50) (peptide)
peptide: VAFIIFWVQ
notes: as for B1
B37: FWVKRGLKK (SEQ ID NO: 63) (peptide)
peptide: FWVKRGLKK
notes: as for B1
B38: WVQRGSKKL (SEQ ID NO: 80) (peptide)
peptide: WVQRGSKKL
notes: as for B7

Molecular target: T1, HLA-B*08:01 (human)
T1 construct: Recombinant MHC class I molecule without the test peptide; the peptide is the other partner
Assay: REVEAL MHC-peptide binding assay, recombinant HLA-B*08:01
Method: (§1) Specifically, assessment was of a series of overlapping 9-mer peptides derived from the sequence […] (set forth in SEQ ID NO: 7), which contains a portion of the CD28 transmembrane domain and 4-1BB costimulatory domain spanning the junction between the domains (bond joining the two amino acids noted in underline). In addition, a series of overlapping 9-mer peptides of each of a number of different variants of this portion also were assessed, each variant containing a mutation or mutations in this region as described in Example 2.
(§2) The various 9-mer overlapping peptides were synthesized and their purity tested by MALDI-TOF Mass Spectrometry.

In Vitro Score	Binder
0 % of positive control peptide	B1
1.9 % of positive control peptide	B2
0 % of positive control peptide	B3
0.2 % of positive control peptide	B4
0.4 % of positive control peptide	B5
0 % of positive control peptide	B6
0 % of positive control peptide	B7
0.1 % of positive control peptide	B8
0.1 % of positive control peptide	B9
0 % of positive control peptide	B10
0.1 % of positive control peptide	B11
0.4 % of positive control peptide	B12
0.6 % of positive control peptide	B13
0.2 % of positive control peptide	B14
0 % of positive control peptide	B15
0.3 % of positive control peptide	B16
0 % of positive control peptide	B17

In Vitro Score	Binder
0 % of positive control peptide	B18
0.1 % of positive control peptide	B19
0 % of positive control peptide	B20
0 % of positive control peptide	B21
0 % of positive control peptide	B22
1.9 % of positive control peptide	B23
0.1 % of positive control peptide	B24
0 % of positive control peptide	B25
0.4 % of positive control peptide	B26
0 % of positive control peptide	B27
28.5 % of positive control peptide	B28
6.2 % of positive control peptide	B29
65.7 % of positive control peptide	B30
4.3 % of positive control peptide	B31
11.4 % of positive control peptide	B32
19.2 % of positive control peptide	B33
4 % of positive control peptide	B34

Molecular target: T2, HLA-A*11:01 (human)
T2 construct: Recombinant MHC class I molecule without the test peptide; the peptide is the other partner
Assay: REVEAL MHC-peptide binding assay, recombinant HLA-A*11:01
Method: as §1, §2

In Vitro Score	Binder
2.8 % of positive control peptide	B35
12.3 % of positive control peptide	B1
3.9 % of positive control peptide	B36
25.9 % of positive control peptide	B2
15 % of positive control peptide	B3
17.2 % of positive control peptide	B4
29.3 % of positive control peptide	B5
29.3 % of positive control peptide	B6
103 % of positive control peptide	B7
19.5 % of positive control peptide	B8
16.9 % of positive control peptide	B9
29 % of positive control peptide	B10
0.4 % of positive control peptide	B11
5.1 % of positive control peptide	B12
1.5 % of positive control peptide	B13
2.4 % of positive control peptide	B14
6.5 % of positive control peptide	B15
13.2 % of positive control peptide	B16
5.6 % of positive control peptide	B17

In Vitro Score	Binder
7.3 % of positive control peptide	B19
6.3 % of positive control peptide	B20
5.9 % of positive control peptide	B21
25.3 % of positive control peptide	B37
5 % of positive control peptide	B22
5.7 % of positive control peptide	B23
5.6 % of positive control peptide	B24
6.8 % of positive control peptide	B25
27.6 % of positive control peptide	B26
18.3 % of positive control peptide	B27
4.8 % of positive control peptide	B28
5.9 % of positive control peptide	B38
4.4 % of positive control peptide	B29
22.1 % of positive control peptide	B30
6.7 % of positive control peptide	B31
3.8 % of positive control peptide	B32
5.6 % of positive control peptide	B33
3.2 % of positive control peptide	B34
